For series [1], the target named is TRIM25 PRY/SPRY domain (UniProt Q14258 439-630). Kind of series: NMR HSQC titration.
Series [2] deals with FPR1 (FK506-binding protein 1) (Saccharomyces cerevisiae, UniProt P20081 1-114). The series is described as follows: NMR HSQC titration.
Series [3] addresses T1, Thioredoxin (hsTXN) (Homo sapiens, UniProt P10599 1-105).
T1 sequence: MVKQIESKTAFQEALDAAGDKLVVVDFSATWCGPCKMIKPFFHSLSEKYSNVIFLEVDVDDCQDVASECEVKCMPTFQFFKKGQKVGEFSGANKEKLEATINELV
Kind of series: NMR HSQC titration.

Series [4] concerns the target T2, Syntrophin-beta-1 PDZ domain (Homo sapiens, UniProt Q13884 111-196).
T2 sequence: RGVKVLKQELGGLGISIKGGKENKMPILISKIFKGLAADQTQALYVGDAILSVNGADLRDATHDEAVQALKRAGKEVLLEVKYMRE
Kind of series: NMR HSQC titration.

In series [5] the target is T3, End binding protein 1 (dmEB1) (Drosophila melanogaster, UniProt Q0E9N1 1-291).
T3 sequence: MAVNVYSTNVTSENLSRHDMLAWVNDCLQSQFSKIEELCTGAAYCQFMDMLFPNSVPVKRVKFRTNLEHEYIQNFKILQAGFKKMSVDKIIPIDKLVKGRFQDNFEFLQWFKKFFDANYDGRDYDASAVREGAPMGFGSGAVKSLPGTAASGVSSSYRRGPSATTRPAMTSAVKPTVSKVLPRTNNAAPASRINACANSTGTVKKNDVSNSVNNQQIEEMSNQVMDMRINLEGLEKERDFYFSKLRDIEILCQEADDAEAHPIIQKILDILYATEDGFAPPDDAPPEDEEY
The series is described as follows: EMSA. In general terms: A gel shift assay detects complexes by their altered migration in electrophoresis.

The target in series [6] is T1, Thioredoxin (hsTXN). Kind of series: NMR HSQC titration. This is another data set of the same source.
Series [7] concerns the target T2, Syntrophin-beta-1 PDZ domain. Kind of series: NMR HSQC titration. The source holds these as a separate data set.

Read-outs that look alike come from different tables or passages of the source.

Sequence of FPR1 (FK506-binding protein 1) (P20081 whole entry): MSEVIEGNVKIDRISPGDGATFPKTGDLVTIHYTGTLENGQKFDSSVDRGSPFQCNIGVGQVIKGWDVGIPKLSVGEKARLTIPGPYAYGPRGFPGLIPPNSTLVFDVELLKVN
Sequence of TRIM25 PRY/SPRY domain (Q14258 439-630): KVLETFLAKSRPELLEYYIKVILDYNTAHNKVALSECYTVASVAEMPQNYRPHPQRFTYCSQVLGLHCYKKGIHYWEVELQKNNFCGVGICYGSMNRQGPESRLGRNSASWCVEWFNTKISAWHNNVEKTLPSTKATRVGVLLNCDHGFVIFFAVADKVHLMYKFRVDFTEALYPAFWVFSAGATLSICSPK

In the case of UUUUUUUUUUUUUUU (ssRNA) [poly(U) 15-mer], the binding result in series [1] is listed as “binds”.
Take UUUUUUUUU (ssRNA) [poly(U) 9-mer]: in series [2], the binding result is given as “no binding”.
On to CCCCCCCC (ssRNA) [poly(C) 8-mer], for which the binding result in series [3] and in series [4] was “no binding” in each case.
Consider UUUUUUUUUUUUUUUUUUUUUUUUU (ssRNA) [poly(U) 25-mer, 32P probe], for which, in series [5], the binding result is given as “binds”.
With UUUUUUUU (ssRNA) [poly(U) 8-mer], the binding result in series [6] and in series [7] was “no binding” each time.
Take AAAAAAAA (ssRNA) [poly(A) 8-mer]: the binding result in series [3] was “no binding”.

The values above are taken from publication PMC8456996.
